Laboratory results reported in the supplement of paper PMC12042874.
± gives the uncertainty stated by the source.

Test: amyloid nucleation score (Sup35N fusion, yeast selection) (log enrichment); library NNK1; higher = more nucleation; inactive = no reads after selection
Procedure, shortened: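 Nucleation score is defined as the DiMSum log enrichment of output over input reads, with centring on the mode score of non-aggregating sequences. A minimum of 100 input reads was required for each sequence. Reads came from Illumina sequencing of plasmid inserts from psi-negative yeast expressing Sup35N fused to peptides of 20 random codons, induced with 100 μM copper sulfate for 24 hours and grown 7 days at 30°C on medium lacking adenine and uracil.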
For CTHRSFFSSNAIAVRLDLSW, the amyloid nucleation score was “inactive”.
For CTIWPSQDGRGCTLCGSRL, the amyloid nucleation score was 0.348 ± 0.75.
CTLILSQQFSSIPVHFILYM showed an amyloid nucleation score of 4.4 ± 0.05.
For CTLKWLTF, the amyloid nucleation score was 1.34 ± 0.43.
For CTMLCFQALRLLGRRILFQA, the amyloid nucleation score was -0.361 ± 0.48.
Work on CTPALLGLAIIQQGNTWLGI yielded an amyloid nucleation score of 2.63 ± 0.079.
For CTPVT, the amyloid nucleation score was 0.887 ± 1.
CTQGCHRVNWSVTYRVVFLA gave an amyloid nucleation score of 0.848 ± 0.42.
For CTRHMHTSRKFQALLSWCVT, the amyloid nucleation score was -0.316 ± 0.47.
CTWYLLVSSSRLLTDSFLPS gave an amyloid nucleation score of 1.32 ± 0.6.
In the case of CTYNLTCLWHMELNSSMIMR, the amyloid nucleation score is reported as 5.37 ± 0.061.
With CVFIHRSFHTLFSGRRVDYP the amyloid nucleation score was 0.229 ± 0.55.
Substance CVFVRMMCTRFAAHHCVLSG has an amyloid nucleation score of -0.143 ± 1.2.
In the case of CVLPSNYDFV, the amyloid nucleation score is reported as “inactive”.
CVLSNRNFNYVAYTYKLQYP gave an amyloid nucleation score of 1.19 ± 0.32.
For CVLVNVNNDQSWWR, the amyloid nucleation score was 5.04 ± 0.076.
For CVSGVDLYRGSLGACGW, the amyloid nucleation score was “inactive”.
For CVSIQDHFRGYKALDPAWFV, the amyloid nucleation score was 0.805 ± 0.27.
CVVLMMGVPAKAGLLLLHWS gave an amyloid nucleation score of 0.297 ± 0.35.
CVYGIGVYR showed an amyloid nucleation score of -0.84 ± 0.95.
Substance CVYSFNWLRLLGALSG has an amyloid nucleation score of 2.18 ± 0.24.
CWCQAPVC showed an amyloid nucleation score of 0.124 ± 0.31.
With CWCSANALMCRGKLSAWNRH the amyloid nucleation score was “inactive”.
CWGWMARLAINLAGTGSNQK showed an amyloid nucleation score of 0.119 ± 0.71.
CWMTGWTYPVY gave an amyloid nucleation score of 3.85 ± 0.15.
Substance CWVHQNNCADVGATGEQSHR has an amyloid nucleation score of -0.029 ± 0.51.
CWVLNFVFGDCNLSCWGN showed an amyloid nucleation score of 7.185 ± 0.051.
In the case of CWWRV, the amyloid nucleation score is reported as -0.761 ± 0.83.
CWYET showed an amyloid nucleation score of -1.27 ± 1.9.
With CYRLWHGCKMGIPVQYLYGS the amyloid nucleation score was -0.113 ± 0.36.
With CYSMNEFFGNLHVSTRTHGK the amyloid nucleation score was -0.944 ± 0.66.
Work on CYWSFKSAVAGPLSSESEGS yielded an amyloid nucleation score of 4.4 ± 0.095.
In the case of DAALVIYLL, the amyloid nucleation score is reported as -0.6 ± 0.52.
For DACGNWCYCWRALDGQDGSI, the amyloid nucleation score was 0.099 ± 0.31.
Substance DAIPFMFPNLMVMK has an amyloid nucleation score of 0.155 ± 0.55.
For DAIVDS, the amyloid nucleation score was 0.084 ± 0.54.
DALYLFWVMGRMVRDRV gave an amyloid nucleation score of 0 ± 0.63.
For DAMHCCKTDYYIIGISGPSD, the amyloid nucleation score was 0.732 ± 0.68.
In the case of DAMWEMRVTTVRALARVCVC, the amyloid nucleation score is reported as 0.236 ± 1.1.
DCDRYNGLCHLCCIQWHL gave an amyloid nucleation score of 1.56 ± 0.33.
With DCNLSSYLVYWAFHYDKLMS the amyloid nucleation score was 0.083 ± 0.58.
With DCPFKLPFSTRRR the amyloid nucleation score was 0.05 ± 0.73.
With DCRQTAKHFPETSDNLYRLT the amyloid nucleation score was -0.2 ± 0.28.
DCYREVSYFKFQNTKGSGSW gave an amyloid nucleation score of 3.33 ± 0.14.
DDGPLWRMKEMCLVTVRGSE showed an amyloid nucleation score of 0.91 ± 0.29.
DDKLLRVLFLMCSPYYTIIG gave an amyloid nucleation score of -0.065 ± 0.22.
DDLQCITLRFTRDASRGVSL gave an amyloid nucleation score of 0.843 ± 0.84.
DDVGSTRYTTMGEACQGRPA gave an amyloid nucleation score of -1.13 ± 0.8.
With DDWIVRHCFNCLSVWMYLRY the amyloid nucleation score was 0.257 ± 0.9.
DEDNFVRSHVNPLYLTSADD gave an amyloid nucleation score of 0.609 ± 0.83.
With DEGRSTQSVVCLVMEVNSDR the amyloid nucleation score was 0.411 ± 0.48.
For DEWCVG, the amyloid nucleation score was 0.017 ± 0.82.
Substance DEWSNKHCSQNTALCSLWAT has an amyloid nucleation score of 1.43 ± 0.2.
With DFARQSSHPETWSSGDLSHS the amyloid nucleation score was 0.239 ± 0.96.
DFECILLGCFGLDLPVTGIR gave an amyloid nucleation score of 2.27 ± 0.16.
Work on DFIKYAFSWE yielded an amyloid nucleation score of -0.347 ± 0.36.
Substance DFIVS has an amyloid nucleation score of -0.198 ± 0.3.
DFRAIS showed an amyloid nucleation score of 0.576 ± 0.79.
Work on DFWMSRKYLNVSMQ yielded an amyloid nucleation score of 3.98 ± 0.1.
For DFYFYKLSLIFKSAFRWFPV, the amyloid nucleation score was -0.359 ± 1.2.
In the case of DGEAPKGSTGWTCGRVNERD, the amyloid nucleation score is reported as -0.125 ± 0.6.
DGHKGEDSMAKLNFIFRLYS showed an amyloid nucleation score of -0.33 ± 0.38.
DGICNW showed an amyloid nucleation score of 2.61 ± 0.12.
For DGQVSAVESMLRRWDSPVKG, the amyloid nucleation score was 0.18 ± 1.
Work on DGRFLCFHIGSLMSGWDGRQ yielded an amyloid nucleation score of -0.783 ± 0.75.
Work on DGRRFFYQRGDICLSMLHNH yielded an amyloid nucleation score of -1.58 ± 1.7.
DGSYTTRGRGHGESGRSGCW gave an amyloid nucleation score of 0.17 ± 0.42.
Substance DHASIGMALYCFCYQVSFIL has an amyloid nucleation score of 0.391 ± 0.42.
With DHFKG the amyloid nucleation score was -0.044 ± 0.84.
For DHFPARKVGCTILTCMMQKL, the amyloid nucleation score was 0.697 ± 0.63.
With DIKGRLLWGDKARLNEVPLR the amyloid nucleation score was 1.04 ± 0.57.
For DILVYRTLSPCVLSCSYFSG, the amyloid nucleation score was -1.25 ± 0.77.
Substance DIPVSHGAYL has an amyloid nucleation score of -0.378 ± 0.84.
Work on DIRDYGLWWDKWAEGC yielded an amyloid nucleation score of 0.459 ± 0.3.
With DIRLTMRVSSLSM the amyloid nucleation score was 0.566 ± 0.31.
Work on DITYVYFSVAELLLMFLTLY yielded an amyloid nucleation score of 1.33 ± 0.48.
DIVPSTPELFI gave an amyloid nucleation score of -0.505 ± 0.59.
For DKAGNGQNGATGWRTMALSG, the amyloid nucleation score was 0.777 ± 1.2.
For DKDDEIY, the amyloid nucleation score was 1.42 ± 0.76.
With DKISWLSHQLRWDSRMSNLE the amyloid nucleation score was 1.1 ± 0.66.
With DKRYGDEVRHTGRWSRSVVW the amyloid nucleation score was 0.013 ± 0.42.
Substance DKSNRTCNWQFNNICCL has an amyloid nucleation score of 8.386 ± 0.049.
Substance DKTMVGTPGLTHMVVDGVE has an amyloid nucleation score of 0.12 ± 0.84.
DKWLPIFTGGQLLSNLIFFC gave an amyloid nucleation score of 0.832 ± 0.18.
For DLCIFIYFVISVRVLYRISN, the amyloid nucleation score was “inactive”.
For DLFRSSLSPVSLLHSDMDMG, the amyloid nucleation score was 0.12 ± 0.41.
In the case of DLFYDGCSRFLVMSKGTALV, the amyloid nucleation score is reported as -0.412 ± 1.2.
For DLIAARLAALF, the amyloid nucleation score was -0.964 ± 0.39.
DLIQLGLGQVSDPLGTWWSG gave an amyloid nucleation score of 2.29 ± 0.3.
For DLIWPRTRYRSTVD, the amyloid nucleation score was “inactive”.
Work on DLLFMLRGAWAKSFMMGSVG yielded an amyloid nucleation score of 0.059 ± 0.43.
For DLLQLYSDGTRGYVFFLLMK, the amyloid nucleation score was “inactive”.
For DLLYERTYRSVVISLRTLAG, the amyloid nucleation score was 0.816 ± 0.92.
In the case of DLNDMAIRV, the amyloid nucleation score is reported as 0.004 ± 0.31.
Work on DLPLDS yielded an amyloid nucleation score of 0.16 ± 0.72.
DLPWSMLKVL showed an amyloid nucleation score of 0.689 ± 1.2.
DLSSESHVFLCVAL showed an amyloid nucleation score of -0.711 ± 2.1.
DMEKVV gave an amyloid nucleation score of 0.408 ± 0.6.
With DMVYYNEIPKGRYQHPAG the amyloid nucleation score was 0.593 ± 0.56.
With DNGGFDPWWCWNRLRWWRGG the amyloid nucleation score was 0.248 ± 0.38.
DNINKLSWTRSILELG showed an amyloid nucleation score of -0.452 ± 0.62.
With DNRFERAVWVPHL the amyloid nucleation score was 3.78 ± 0.12.
DNSPSSWFDWDLGEIGVRVE gave an amyloid nucleation score of -0.469 ± 1.
Work on DNVLALDGWNLINCLTT yielded an amyloid nucleation score of 0.155 ± 0.37.
Work on DPGPLARKVGRRIEAAIMVA yielded an amyloid nucleation score of 0.992 ± 0.49.
Work on DPICYKRNKANVYLGRFGYR yielded an amyloid nucleation score of 0.7 ± 0.66.
Work on DPVVFDSWELLKQWISCKRC yielded an amyloid nucleation score of 0.226 ± 1.6.
Work on DPYMNWIVLYSGVRHWNGVM yielded an amyloid nucleation score of 0.056 ± 1.4.
Work on DQYIGGFGFNYETFVTRNLV yielded an amyloid nucleation score of -0.861 ± 0.49.
DRCNDAVGRKRRRTKMRGLY gave an amyloid nucleation score of 0.457 ± 0.45.
Substance DRLWKSTWKGMTRLMRRSAE has an amyloid nucleation score of -0.968 ± 0.48.
In the case of DRMPRFLVHENVYTVPERVW, the amyloid nucleation score is reported as “inactive”.
DRRMSTTVMGRFVWRDRYVG gave an amyloid nucleation score of 0.526 ± 0.65.
DRTRLVSHHTRIVRRWAHVY gave an amyloid nucleation score of 0.064 ± 0.65.
For DRVANNLMD, the amyloid nucleation score was -0.344 ± 0.26.
DRYIREISNTATCFALLL showed an amyloid nucleation score of 4.29 ± 0.083.
With DSLLWVMKYSMVSFYMCDYR the amyloid nucleation score was -0.668 ± 0.97.
Work on DSQGFMRVISLMFVDGSLLA yielded an amyloid nucleation score of 0.591 ± 0.54.
For DSRFHSLGVLAHMPRDCNCG, the amyloid nucleation score was 0.853 ± 0.86.
With DSRKSRYGSWVLRWS the amyloid nucleation score was “inactive”.
Substance DSSLRDKYVTKNVFIFSMSG has an amyloid nucleation score of 4.71 ± 0.063.
For DSTFHMDYY, the amyloid nucleation score was -0.121 ± 0.5.
With DSVYRLFICIVISALTGWWK the amyloid nucleation score was 0.258 ± 0.62.
Work on DTECRGMKVELHRTHRMGKF yielded an amyloid nucleation score of -0.179 ± 0.62.
DTLEVTFGYYDCYGMYKTIT gave an amyloid nucleation score of -1.18 ± 1.7.
In the case of DTLLKF, the amyloid nucleation score is reported as 0.916 ± 0.74.
Substance DTYITGSHCHFYMNCWKA has an amyloid nucleation score of 8.519 ± 0.079.
